{
  "source": "patent US20250296979A1",
  "molecular_target": "VEGF-C and VEGF-D",
  "assay": "ELISA; after storage at -20 C or 5 C for up to 24 months",
  "data": [
    {"substance": "OPT-302 (Fc fusion)", "values": [
      {"measurement": "decrease of binding activity against initiation of the stability study", "value": "9 to 19", "unit": "%"}
    ]}
  ]
}
